# T1: ThdF (Streptomyces albogriseolus, UniProt A0A1B1V585)
# T1 construct: apoThdF (full length) for Kd; elastase-digested ThdF, residues about 7-167 built, for crystals
# T1 sequence (A0A1B1V585 1-193): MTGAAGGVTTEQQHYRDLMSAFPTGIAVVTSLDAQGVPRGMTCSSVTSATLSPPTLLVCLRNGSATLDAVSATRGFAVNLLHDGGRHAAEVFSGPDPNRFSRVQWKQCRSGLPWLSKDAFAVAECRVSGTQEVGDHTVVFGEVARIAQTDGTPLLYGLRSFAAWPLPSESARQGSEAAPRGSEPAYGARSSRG
# Legend:
# ThdF [1] = target: T2, ThdF (Streptomyces albogriseolus, UniProt A0A1B1V585); test: steady-state inhibition kinetics (NADH turnover at […] nm); assay type: biochemical
# ThdF [2] = target: T1, ThdF; test: fluorescence anisotropy; crystal structures ([…] and […] Å) with two FAD per chain; assay type: binding
# ThdF [3] = target: T2, ThdF; test: steady-state product inhibition kinetics; assay type: biochemical
# [4] = target: ThdF after in situ proteolysis with elastase, as crystallised (crystal forms 1 and 2) (Streptomyces albogriseolus); test: crystal structure; ThdF with elastase (in situ proteolysis), sitting drop, 20 °C; crystal form 1 (P212121) and form 2 (P21) with two FAD per chain, and form 1 soaked with NADH and dithionite; four molecules per asymmetric unit
# [5] = substrate: Cc1cc2nc3c(=O)[nH]c(=O)nc-3n(C[C@H](O)[C@H](O)[C@H](O)COP(=O)(O)O)c2cc1C; test: steady-state kinetics, KM as variable substrate; assay type: biochemical, Streptomyces albogriseolus; settings: NADH
# [6] = target: the molecule itself; test: crystal structure; full-length ThdF without protease, initial screening, 2.9 Å; not fully refined and not deposited
# purified protein = substrate: NC(=O)C1=CN([C@@H]2O[C@H](COP(=O)(O)OP(=O)(O)OC[C@H]3O[C@@H](n4cnc5c(N)ncnc54)[C@H](O)[C@@H]3O)[C@@H](O)[C@H]2O)C=CC1; test: purified protein
molecule,measurement,setting,value
Nc1ncnc2c1ncn2[C@@H]1O[C@H](COP(=O)(O)O)[C@@H](O)[C@H]1O [AMP],steady-state inhibition kinetics (NADH turnover at 340 nm),ThdF [1],The lines intersecting on the ordinate indicate competitive inhibition of NADH by AMP.
Cc1cc2nc3c(=O)[nH]c(=O)nc-3n(C[C@H](O)[C@H](O)[C@H](O)COP(=O)(O)OP(=O)(O)OC[C@H]3O[C@@H](n4cnc5c(N)ncnc54)[C@H](O)[C@@H]3O)c2cc1C [FAD],Kd,ThdF [2],6.8 ± 0.2 µM
NC(=O)c1ccc[n+]([C@@H]2O[C@H](COP(=O)([O-])OP(=O)(O)OC[C@H]3O[C@@H](n4cnc5c(N)ncnc54)[C@H](O)[C@@H]3O)[C@@H](O)[C@H]2O)c1 [NAD^+],steady-state product inhibition kinetics,ThdF [3],"For both substrates, NAD^+ was found to produce a noncompetitive inhibition pattern"
NC(=O)c1ccc[n+]([C@@H]2O[C@H](COP(=O)([O-])O)[C@@H](O)[C@H]2O)c1 [NMN],steady-state inhibition kinetics (NADH turnover at 340 nm),ThdF [1],"The NADH-dependent measurement with NMN showed intersecting lines on the ordinate, confirming competitive inhibition toward NADH"
"ThdF after in situ proteolysis with elastase, as crystallised (crystal forms 1 and 2) (from UniProt A0A1B1V585 6-171) (domain or fragment)",stoichiometry N,[4],2
"NADH-dependent flavin reductase ThdF from Streptomyces albogriseolus, full length, His6-tag removed by TEV protease (enzyme, UniProt A0A1B1V585 1-193, looked up, flavin reductase ThdF of the thienodoline biosynthetic gene cluster, Streptomyces albogriseolus; 193 residues (truncation to 1-168 removed amino acids 169-193); residual amino acids from TEV protease digestion are left at the N terminus; Codon-optimised synthetic gene in pETM-11; copurifies with FAD (occupancy about 124%); the PDB entries 9fd4-9fd6 come from this protein after elastase digestion; …) MTGAAGGVTTEQQHYRDLMSAFPTGIAVVTSLDAQGVPRGMTCSSVTSATLSPPTLLVCLRNGSATLDAVSATRGFAVNLLHDGGRHAAEVFSGPDPNRFSRVQWKQCRSGLPWLSKDAFAVAECRVSGTQEVGDHTVVFGEVARIAQTDGTPLLYGLRSFAAWPLPSESARQGSEAAPRGSEPAYGARSSRG",Km,[5],0.28 ± 0.07 µM
same,kcat,[5],0.2 ± 0.08 s⁻¹
same,stoichiometry N,[6],2
ThdF (Streptomyces albogriseolus) (protein) GGVTTEQQHYRDLMSAFPTGIAVVTSLDAQGVPRGMTCSSVTSATLSPPTLLVCLRNGSATLDAVSATRGFAVNLLHDGGRHAAEVFSGPDPNRFSRVQWKQCRSGLPWLSKDAFAVAECRVSGTQEVGDHTVVFGEVARIAQTDGTPLLYGLRSFAAWPLPSESA,Km,purified protein,19.5 ± 5.6 µM
same,kcat,"purified protein; FAD binds instead of the stacked FAD, R16 contacts the NMN ribose, H136 of the GDH motif the nicotinamide, S48 of the second protomer",0.26 s⁻¹
